Source: IntAct's records for PubMed 19716822

Target: srk2e_arath SRK2E (UniProt Q940H6)
Sequence (Q940H6 whole entry): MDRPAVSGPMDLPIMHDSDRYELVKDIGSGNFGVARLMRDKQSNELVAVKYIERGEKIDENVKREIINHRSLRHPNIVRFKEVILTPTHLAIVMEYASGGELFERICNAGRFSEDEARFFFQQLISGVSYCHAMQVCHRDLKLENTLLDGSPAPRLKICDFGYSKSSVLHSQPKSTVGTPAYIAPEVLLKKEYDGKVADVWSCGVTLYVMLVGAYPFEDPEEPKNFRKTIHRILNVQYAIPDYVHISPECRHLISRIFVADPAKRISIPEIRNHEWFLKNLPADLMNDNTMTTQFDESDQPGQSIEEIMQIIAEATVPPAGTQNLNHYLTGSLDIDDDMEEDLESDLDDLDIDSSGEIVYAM

Substance: Respiratory burst oxidase homolog protein F (Arabidopsis thaliana (Mouse-ear cress)), O48538 S174A
- effect of a mutation on the interaction: decreasing interaction
